T1: rhOX40-Avi-His (human, UniProt P43489 29-214, limits assumed)
T1 construct: also called OX40抗原; 人源OX40
T1 sequence (looked up): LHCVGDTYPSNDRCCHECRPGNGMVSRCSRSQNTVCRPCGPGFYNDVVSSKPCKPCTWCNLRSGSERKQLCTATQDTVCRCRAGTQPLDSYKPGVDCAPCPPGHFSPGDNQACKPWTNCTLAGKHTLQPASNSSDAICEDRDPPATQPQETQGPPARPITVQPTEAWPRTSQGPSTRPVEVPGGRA

T2: 鼠源OX40 (mouse, UniProt P47741 20-211, limits assumed)
T2 construct: also called 鼠源OX40抗原
T2 sequence (looked up): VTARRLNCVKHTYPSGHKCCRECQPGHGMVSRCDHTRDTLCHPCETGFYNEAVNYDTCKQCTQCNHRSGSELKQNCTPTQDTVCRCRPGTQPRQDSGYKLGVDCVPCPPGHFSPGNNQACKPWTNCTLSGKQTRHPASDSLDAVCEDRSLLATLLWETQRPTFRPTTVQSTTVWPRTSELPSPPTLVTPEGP

B1: L52-2D7H232 (bispecific antibody, human IgG1, kappa)
light: DIQMTQSPSTLSASVGDRVTITCQSSQNVYSNNRLSWYQQKPGKAPKLLIYWTSFLASGVPSRFSGSGSGTEFTLTISSLQPDDFATYYCAGGYSGNLYTFGQGTKLEIKRTVAAPSVFIFPPSDEQLKSGTASVVCLLNNFYPREAKVQWKVDNALQSGNSQESVTEQDSKDSTYSLSSTLTLSKADYEKHKVYACEVTHQGLSSPVTKSFNRGEC
heavy: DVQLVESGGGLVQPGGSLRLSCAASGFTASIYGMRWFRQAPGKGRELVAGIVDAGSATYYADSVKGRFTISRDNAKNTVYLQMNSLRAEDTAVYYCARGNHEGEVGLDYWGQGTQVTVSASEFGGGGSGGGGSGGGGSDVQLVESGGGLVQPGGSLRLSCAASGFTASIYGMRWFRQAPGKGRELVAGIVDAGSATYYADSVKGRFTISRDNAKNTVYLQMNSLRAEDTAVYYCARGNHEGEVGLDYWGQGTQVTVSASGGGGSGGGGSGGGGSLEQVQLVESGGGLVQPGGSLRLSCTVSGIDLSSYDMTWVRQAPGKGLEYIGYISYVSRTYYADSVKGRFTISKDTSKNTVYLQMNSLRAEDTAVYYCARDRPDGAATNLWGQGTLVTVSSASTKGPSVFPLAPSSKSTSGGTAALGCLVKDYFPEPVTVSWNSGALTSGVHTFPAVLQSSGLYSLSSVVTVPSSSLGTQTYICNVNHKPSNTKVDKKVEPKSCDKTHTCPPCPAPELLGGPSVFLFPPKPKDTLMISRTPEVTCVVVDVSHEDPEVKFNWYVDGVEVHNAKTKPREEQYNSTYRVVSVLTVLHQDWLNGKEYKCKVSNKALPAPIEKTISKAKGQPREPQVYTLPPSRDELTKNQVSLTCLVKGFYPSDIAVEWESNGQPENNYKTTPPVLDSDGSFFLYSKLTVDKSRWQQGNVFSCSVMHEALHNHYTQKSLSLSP
notes: Symmetric bispecific: two tandem anti-OX40 nanobodies D7 joined to the heavy chain of the anti-PD-L1 IgG1 L52H232; also called 抗PD-L1与OX40双特异性抗体; 优选抗体L52-2D7H232
B2: L52H232-D7 (bispecific antibody, human IgG1, kappa, N297A)
light: B1 light
heavy: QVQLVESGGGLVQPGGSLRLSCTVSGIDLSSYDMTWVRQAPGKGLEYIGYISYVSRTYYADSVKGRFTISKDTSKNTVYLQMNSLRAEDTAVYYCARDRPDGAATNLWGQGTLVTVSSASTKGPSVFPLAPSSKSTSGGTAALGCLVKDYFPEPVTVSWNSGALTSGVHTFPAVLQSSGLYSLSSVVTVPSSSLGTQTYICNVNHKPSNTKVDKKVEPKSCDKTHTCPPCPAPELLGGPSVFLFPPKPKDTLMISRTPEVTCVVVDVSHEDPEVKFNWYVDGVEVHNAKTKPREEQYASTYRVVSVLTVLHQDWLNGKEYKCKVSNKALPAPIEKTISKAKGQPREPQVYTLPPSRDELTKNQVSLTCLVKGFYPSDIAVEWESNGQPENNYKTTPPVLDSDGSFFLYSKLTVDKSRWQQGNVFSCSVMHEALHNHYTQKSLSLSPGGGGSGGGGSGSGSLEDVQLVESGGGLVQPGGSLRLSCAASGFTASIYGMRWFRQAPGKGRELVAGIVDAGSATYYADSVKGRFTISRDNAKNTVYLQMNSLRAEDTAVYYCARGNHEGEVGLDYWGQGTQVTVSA
notes: Symmetric bispecific: anti-OX40 nanobody D7 joined to the heavy chain of the anti-PD-L1 IgG1 L52H232; also called 抗PD-L1与OX40双特异性抗体
B3: L52H232-2D7 (bispecific antibody, human IgG1, kappa, N297A)
light: B1 light
heavy: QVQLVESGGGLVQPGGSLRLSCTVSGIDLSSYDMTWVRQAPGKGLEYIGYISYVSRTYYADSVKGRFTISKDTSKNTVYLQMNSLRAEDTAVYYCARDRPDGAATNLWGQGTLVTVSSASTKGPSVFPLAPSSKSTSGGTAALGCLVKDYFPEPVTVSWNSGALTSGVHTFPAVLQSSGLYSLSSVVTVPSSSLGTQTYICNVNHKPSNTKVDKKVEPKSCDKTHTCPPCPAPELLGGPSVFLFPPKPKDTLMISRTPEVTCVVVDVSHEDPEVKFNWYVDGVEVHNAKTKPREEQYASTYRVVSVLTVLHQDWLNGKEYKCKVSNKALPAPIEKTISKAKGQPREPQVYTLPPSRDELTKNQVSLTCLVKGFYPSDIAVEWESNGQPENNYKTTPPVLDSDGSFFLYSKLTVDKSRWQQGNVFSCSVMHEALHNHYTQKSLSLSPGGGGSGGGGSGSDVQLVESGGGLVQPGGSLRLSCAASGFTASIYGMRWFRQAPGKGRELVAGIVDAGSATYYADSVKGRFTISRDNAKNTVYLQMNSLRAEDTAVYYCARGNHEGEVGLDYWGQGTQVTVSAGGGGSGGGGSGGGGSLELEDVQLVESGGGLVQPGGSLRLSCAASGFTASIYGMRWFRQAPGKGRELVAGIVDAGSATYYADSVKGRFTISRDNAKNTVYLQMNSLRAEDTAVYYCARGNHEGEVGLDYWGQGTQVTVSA
notes: to be rechecked; also called 抗PD-L1与OX40双特异性抗体
B4: L52-D7H232 (bispecific antibody, human IgG1, kappa, N297A)
light: B1 light
heavy: DVQLVESGGGLVQPGGSLRLSCAASGFTASIYGMRWFRQAPGKGRELVAGIVDAGSATYYADSVKGRFTISRDNAKNTVYLQMNSLRAEDTAVYYCARGNHEGEVGLDYWGQGTQVTVSASEFGGGGSGGGGSGGGGSLEQVQLVESGGGLVQPGGSLRLSCTVSGIDLSSYDMTWVRQAPGKGLEYIGYISYVSRTYYADSVKGRFTISKDTSKNTVYLQMNSLRAEDTAVYYCARDRPDGAATNLWGQGTLVTVSSASTKGPSVFPLAPSSKSTSGGTAALGCLVKDYFPEPVTVSWNSGALTSGVHTFPAVLQSSGLYSLSSVVTVPSSSLGTQTYICNVNHKPSNTKVDKKVEPKSCDKTHTCPPCPAPEDEGGPSVFLFPPKPKDTLMISRTPEVTCVVVDVSHEDPEVKFNWYVDGVEVHNAKTKPREEQYASTYRVVSVLTVLHQDWLNGKEYKCKVSNKALPAPIEKTISKAKGQPREPQVYTLPPCRDELTKNQVSLWCLVKGFYPSDIAVEWESNGQPENNYKTTPPVLDSDGSFFLYSKLTVDKSRWQQGNVFSCSVMHEALHNHYTQKSLSLSP
notes: Symmetric bispecific: anti-OX40 nanobody D7 joined to the heavy chain of the anti-PD-L1 IgG1 L52H232; also called 抗PD-L1与OX40双特异性抗体; 优选抗体L52-D7H232

target: T1, rhOX40-Avi-His; assay: ELISA, human OX40 coated

Row | binding result | Binder
1 | binds | B1
2 | binds | B2
3 | binds | B3

target: T2, 鼠源OX40; assay: ELISA, mouse OX40 coated

Row | binding result | Binder
4 | no binding | B1
5 | no binding | B4
6 | no binding | B2
7 | no binding | B3

From patent CN114478789A (ANHUI ANKE BIOLOGICAL ENG GROUP CO LTD, dated 2022)
